Holding throughout (test): SPR (Biacore), antibody captured, FcgR analyte, 25 C
Test [1] concerns the target T1, human FcγRIIIaV extracellular domain, C-terminal His-tag (human, UniProt P08637 17-208).
T1 construct: also called FcgRIIIaV; not shown: His-tag added to C-terminus

Test [2] deals with T2, human FcγRIIaR extracellular domain, C-terminal His-tag (human, UniProt P12318 34-217).
T2 construct: also called human FcγRIIa (type R); FcgRIIaR; not shown: His-tag added to C-terminus
T2 chain: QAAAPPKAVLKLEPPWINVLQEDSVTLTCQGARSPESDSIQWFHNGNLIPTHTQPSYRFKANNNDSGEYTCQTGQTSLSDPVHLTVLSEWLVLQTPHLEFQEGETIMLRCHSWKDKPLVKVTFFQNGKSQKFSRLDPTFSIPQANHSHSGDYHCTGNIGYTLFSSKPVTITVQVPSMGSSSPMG

The target in test [3] is T3, cynomolgus monkey FcγRIIa1 extracellular domain, C-terminal His-tag (cynomolgus monkey).
T3 construct: also called cyno FcγRIIa1; cynoFcgRIIa1; not shown: His-tag added to C-terminus
T3 chain: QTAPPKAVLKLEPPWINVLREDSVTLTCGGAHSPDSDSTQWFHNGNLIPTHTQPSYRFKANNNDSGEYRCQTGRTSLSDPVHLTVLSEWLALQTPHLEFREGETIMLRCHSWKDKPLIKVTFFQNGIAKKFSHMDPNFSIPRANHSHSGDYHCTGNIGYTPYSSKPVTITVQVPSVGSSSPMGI

Test [4] addresses T4, cynomolgus monkey FcγRIIIaS extracellular domain, C-terminal His-tag (cynomolgus monkey, UniProt A3RFZ7 21-206 (rhesus entry)).
T4 construct: also called cyno FcγRIIIaS; cynoFcγRIIIaS; not shown: His-tag added to C-terminus

Test [5] has as its target T5, cynomolgus monkey FcγRIIb extracellular domain, C-terminal His-tag (cynomolgus monkey).
T5 construct: also called cyno FcγRIIb; cynoFcγRIIb; not shown: His-tag added to C-terminus
T5 chain: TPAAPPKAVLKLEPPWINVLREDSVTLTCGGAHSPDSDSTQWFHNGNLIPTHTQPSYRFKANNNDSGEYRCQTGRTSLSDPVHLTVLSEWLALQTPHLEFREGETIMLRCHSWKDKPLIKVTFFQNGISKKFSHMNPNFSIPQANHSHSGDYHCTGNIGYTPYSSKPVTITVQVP

For test [6], the target named is T6, human FcγRIIb extracellular domain, C-terminal His-tag (human, UniProt P31994 43-217).
T6 construct: also called FcgRIIb (human); not shown: His-tag added to C-terminus
T6 sequence: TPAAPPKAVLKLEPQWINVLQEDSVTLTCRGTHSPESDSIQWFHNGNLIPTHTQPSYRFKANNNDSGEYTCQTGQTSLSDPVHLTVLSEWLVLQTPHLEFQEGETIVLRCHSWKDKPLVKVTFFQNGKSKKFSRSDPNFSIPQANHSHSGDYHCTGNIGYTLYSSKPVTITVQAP

In test [7] the target is T7, cynomolgus monkey FcγRIIa2 extracellular domain, C-terminal His-tag (cynomolgus monkey).
T7 construct: also called cyno FcγRIIa2; cynoFcgRIIa2; not shown: His-tag added to C-terminus
T7 chain: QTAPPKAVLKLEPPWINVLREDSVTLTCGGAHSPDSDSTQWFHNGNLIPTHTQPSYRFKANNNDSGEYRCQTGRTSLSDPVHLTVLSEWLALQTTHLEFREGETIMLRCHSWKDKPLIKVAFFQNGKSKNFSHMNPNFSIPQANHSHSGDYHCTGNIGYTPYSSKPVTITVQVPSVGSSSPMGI

The target of test [8] is T8, cynomolgus monkey FcγRIIa3 extracellular domain, C-terminal His-tag (cynomolgus monkey).
T8 construct: also called cyno FcγRIIa3; cynoFcgRIIa3; not shown: His-tag added to C-terminus
T8 chain: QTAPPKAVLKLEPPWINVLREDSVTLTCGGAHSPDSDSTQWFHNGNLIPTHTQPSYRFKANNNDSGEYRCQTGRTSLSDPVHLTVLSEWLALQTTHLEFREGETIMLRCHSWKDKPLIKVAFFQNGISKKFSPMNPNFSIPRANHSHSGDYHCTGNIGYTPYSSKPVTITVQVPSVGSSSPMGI

T4 sequence (A3RFZ7 21-206): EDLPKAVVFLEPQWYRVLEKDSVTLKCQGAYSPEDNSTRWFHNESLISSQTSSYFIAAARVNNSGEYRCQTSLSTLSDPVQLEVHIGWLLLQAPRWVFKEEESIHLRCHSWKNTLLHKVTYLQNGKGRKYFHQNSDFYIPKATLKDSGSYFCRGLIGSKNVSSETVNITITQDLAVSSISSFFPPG
T1 sequence (P08637 17-208 F176V): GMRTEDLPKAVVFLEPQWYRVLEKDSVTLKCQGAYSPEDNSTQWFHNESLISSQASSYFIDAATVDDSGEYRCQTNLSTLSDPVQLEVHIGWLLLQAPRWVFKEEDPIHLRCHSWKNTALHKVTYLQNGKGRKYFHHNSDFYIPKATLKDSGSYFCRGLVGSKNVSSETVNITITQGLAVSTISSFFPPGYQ

B1: M103205H795-MY312/M103202L889-SK1 (antibody, human IgG1, kappa)
heavy: QVTLKESGPVLVKPTETLTLTCTVSGIDLSHDDISWVRQAPGKGLEWVGIISYAGSTYYASWAKGRLTISKDTSKNQVVLTMTNMDPVDTATYYCARGVPAYSHGGDLWGQGTLVTVSSASTKGPSVFPLAPSSKSTSGGTAALGCLVKDYFPEPVTVSWNSGALTSGVHTFPAVLQSSGLYSLSSVVTVPSSSLGTQTYICNVNHKPSNTKVDKKVEPKSCDKTHTCPPCPAPELLTGPSVFLFPPKPKDTLMISRTPEVTCVVVDVSEEDPEVKFNWYVDGVEVHNAKTKPREEQYNSTYRVVSVLTVLHQDWLNGKEYKCKVSNTALPKPIEKTISKAKGQPREPQVYTLPPSREEMTKNQVSLTCLVKGFYPSDIAVEWESNGQPENNYKTTPMVLDSDGSFFLYSKLTVDKSRWQQGNVFSCSVMHEALHNHYTQKSLSLSP
light: DIVMTQSPATLSLSPGERATLSCTSSQSVYHANWLSWFQQKPGQPPKLLIYWASTLAYGVPSRFSGSGSGTDFTLTISSLQPEDAATYYCAGGYGGGRYAFGQGTKVEIKRTVAAPSVFIFPPSDEQLKSGTASVVCLLNNFYPREAKVQWKVDNALQSGNSQESVTEQDSKDSTYSLSSTLTLSKADYEKHKVYACEVTHQGLSSPVTKSFNRGEC
What is called Kd is the equilibrium constant for the complex coming apart. B1: the Kd stood at 2800 nM in test [1]; 170 nM in test [2]; 1400 nM in test [3]; 650 nM in test [4]; 400 nM in test [5]; 1100 nM in test [6]. Also, the Kd was 1500 nM in test [7] and 3700 nM in test [8].

B2: M103205H795-MY318/M103202L889-SK1 (antibody, human IgG1, kappa)
heavy: QVTLKESGPVLVKPTETLTLTCTVSGIDLSHDDISWVRQAPGKGLEWVGIISYAGSTYYASWAKGRLTISKDTSKNQVVLTMTNMDPVDTATYYCARGVPAYSHGGDLWGQGTLVTVSSASTKGPSVFPLAPSSKSTSGGTAALGCLVKDYFPEPVTVSWNSGALTSGVHTFPAVLQSSGLYSLSSVVTVPSSSLGTQTYICNVNHKPSNTKVDKKVEPKSCDKTHTCPPCPAPELLLGPSVFLFPPKPKDTLMISRTPEVTCVVVDVSEEDPEVKFNWYVDGVEVHNAKTKPREEQYNSTYRVVSVLTVLHQDWLNGKEYKCKVSNTALPKPIEKTISKAKGQPREPQVYTLPPSREEMTKNQVSLTCLVKGFYPSDIAVEWESNGQPENNYKTTPMVLDSDGSFFLYSKLTVDKSRWQQGNVFSCSVMHEALHNHYTQKSLSLSP
light: DIVMTQSPATLSLSPGERATLSCTSSQSVYHANWLSWFQQKPGQPPKLLIYWASTLAYGVPSRFSGSGSGTDFTLTISSLQPEDAATYYCAGGYGGGRYAFGQGTKVEIKRTVAAPSVFIFPPSDEQLKSGTASVVCLLNNFYPREAKVQWKVDNALQSGNSQESVTEQDSKDSTYSLSSTLTLSKADYEKHKVYACEVTHQGLSSPVTKSFNRGEC
In the case of B2, the Kd came to 8700 nM in test [1]; 1300 nM in test [2]; 7900 nM in test [3]; 1500 nM in test [4]; 2200 nM in test [5]; 4800 nM in test [6]. For the same molecule, the Kd in test [7] was found to be 7700 nM; in test [8], 32000 nM.

B3: M103205H795-MY321/M103202L889-SK1 (antibody, human IgG1, kappa)
heavy: QVTLKESGPVLVKPTETLTLTCTVSGIDLSHDDISWVRQAPGKGLEWVGIISYAGSTYYASWAKGRLTISKDTSKNQVVLTMTNMDPVDTATYYCARGVPAYSHGGDLWGQGTLVTVSSASTKGPSVFPLAPSSKSTSGGTAALGCLVKDYFPEPVTVSWNSGALTSGVHTFPAVLQSSGLYSLSSVVTVPSSSLGTQTYICNVNHKPSNTKVDKKVEPKSCDKTHTCPPCPAPELLHGPSVFLFPPKPKDTLMISRTPEVTCVVVDVSDEDPEVKFNWYVDGVEVHNAKTKPREEQYNSTYRVVSVLTVLHQDWLNGKEYKCKVSNKALPKPIEKTISKAKGQPREPQVYTLPPSREEMTKNQVSLTCLVKGFYPSDIAVEWESNGQPENNYKTTPMVLDSDGSFFLYSKLTVDKSRWQQGNVFSCSVMHEALHNHYTQKSLSLSP
light: DIVMTQSPATLSLSPGERATLSCTSSQSVYHANWLSWFQQKPGQPPKLLIYWASTLAYGVPSRFSGSGSGTDFTLTISSLQPEDAATYYCAGGYGGGRYAFGQGTKVEIKRTVAAPSVFIFPPSDEQLKSGTASVVCLLNNFYPREAKVQWKVDNALQSGNSQESVTEQDSKDSTYSLSSTLTLSKADYEKHKVYACEVTHQGLSSPVTKSFNRGEC
Take B3: the Kd in test [1] came out at 3400 nM; in test [2], 350 nM; in test [3], 2300 nM; in test [4], 11000 nM; in test [5], 540 nM; in test [6] it was 2600 nM. Also, the Kd in test [7] is 2200 nM; in test [8], 2900 nM.

The values are drawn from US20200317768A1 (published 2020).
